± gives the uncertainty stated by the source.
Experiment: amyloid nucleation score (Sup35N fusion, yeast selection) (log enrichment); library NNK2; higher = more nucleation; inactive = no reads after selection
In short: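 The nucleation score is the DiMSum log enrichment of output over input reads, centred on the mode score of non-aggregating sequences. Only sequences with 100 or more input reads were scored, using Illumina sequencing of input and output plasmid inserts. Psi-negative yeast expressing Sup35N fused to peptides of 20 random codons were induced 24 hours with 100 μM copper sulfate and grown 7 days at 30°C on medium lacking adenine and uracil.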

| Substance | amyloid nucleation score |
| --- | --- |
| LVGDRNDVLPVFVRSRRRVP | 0.53 ± 0.56 |
| LVGRRWVFTDCKGFRASVNF | inactive |
| LVGWSLHSITFPEWRGHNPK | -0.991 ± 1.1 |
| LVISLSISCAGKRVAQSHMG | -0.951 ± 0.76 |
| LVITTMDDLKCDRAVVGPMW | -0.174 ± 0.76 |
| LVKTVDYAALPRICDVGRGQ | 3.96 ± 0.075 |
| LVLFCAFRVTLGFSQTLNSM | -0.003 ± 0.8 |
| LVLRQLVR | inactive |
| LVLWKLQVCSPLTVLRTPYR | 0.889 ± 0.28 |
| LVMFKVTF | 6.432 ± 0.04 |
| LVMTHAMFVSLWCGRTVFLL | 0.014 ± 0.49 |
| LVNACFCACLRNNSFKCDYY | 6.966 ± 0.066 |
| LVPPVLGAHVSNKVDVILHA | -0.199 ± 1.1 |
| LVSYNITFEYHNGKGCGEYG | 3.63 ± 0.12 |
| LVTSCLQVEW | 0.284 ± 0.28 |
| LVVKGDLFAIYVCPCLCRGS | 9.397 ± 0.051 |
| LVVSI | -0.876 ± 0.78 |
| LVVSIIRGYLFPCGDPIFLW | inactive |
| LVWPTYVGDQAGSCVPGVFP | 4.51 ± 0.068 |
| LVYFKRRLPTRLIANRRMNG | -0.845 ± 0.76 |
| LVYRGLESQPAMRMWHTSST | -0.207 ± 0.63 |

| Substance | amyloid nucleation score |
| --- | --- |
| LWAFHLNFVLSAVCLRRKNL | inactive |
| LWEVLWVFFDLNNVRLTMCN | -0.93 ± 0.78 |
| LWFLYSAVTFTR | -0.856 ± 0.76 |
| LWHGYGRFRVLSVVF | 3.53 ± 0.045 |
| LWIYNYVIRLDFICMERILL | inactive |
| LWPVCALDEGL | 0.669 ± 0.62 |
| LWYMMYLRPLWVRPKIDNEV | 1.11 ± 0.24 |
| LYAECFYATILNGDECRWRT | 0.344 ± 0.31 |
| LYDIWEDGSITLFCYSYQHH | 8.969 ± 0.037 |
| LYENRQFFCQGFGRWCMKLL | 0.45 ± 0.74 |
| LYFLV | 6.55 ± 0.085 |
| LYGTE | 0.244 ± 0.2 |
| LYHYPS | inactive |
| LYKAGIGILLTGVILVF | -1.12 ± 0.6 |
| LYLCGWVGRSMGFDARPCHF | 3.38 ± 0.098 |
| LYPYAQFCVSVRRLHRLVSR | 0.306 ± 0.28 |
| LYRSVGFGIVEFDH | inactive |
| LYSDMRASDRYWTLSFDCKI | 1.88 ± 0.48 |
| LYSLWQKRGRRGSYVSPAGS | 2.88 ± 0.13 |
| LYSLYTYVKRYCASRVRHRY | 0.688 ± 0.81 |
| LYSRSTSILDERWSTVIILL | 2.5 ± 0.23 |

| Substance | amyloid nucleation score |
| --- | --- |
| LYSVGVR | -0.387 ± 1.1 |
| LYSYDLTC | 1.78 ± 0.13 |
| LYVVVRLISCYYGAFPSWNR | -0.316 ± 0.26 |
| MAFCCLSVRYTIGRVVAFMY | -0.4 ± 0.64 |
| MAILYVVGWFVP | 0.148 ± 0.28 |
| MANSTLRV | 0.314 ± 0.39 |
| MASAVNCESCISSGRVRFSG | 0.547 ± 0.81 |
| MATSMNQHGVRMVWSSRLGS | 4.57 ± 0.051 |
| MCDLDDRKTTLSPWLRSSLG | 1.14 ± 0.35 |
| MCGKRGLRGWLKSDDVIIWV | 5.19 ± 0.074 |
| MCPDKARGTMVCTERTPRLM | 0.793 ± 0.15 |
| MDGVMRTRFFLDSDVFYSSH | 3.69 ± 0.046 |
| MDNNVNNRSPFLICRMMDNI | inactive |
| MDPVWVYADFWMF | -0.78 ± 1.1 |
| MDRWGLFMGYCIADHMIMFD | -0.416 ± 0.48 |
| MDTSYMVLCYKSQRRRSGSR | 0.776 ± 0.2 |
| MDWSSGSYGSLSSSHAIERF | -0.093 ± 0.79 |
| MELCYVILWYYIFSCGWWRS | inactive |
| MENLRNMAYSNC | -1.66 ± 0.61 |
| MESINSVSSSNIVHRFRRGV | 5.58 ± 0.077 |
| MFDLQVRTWFWAF | 3.03 ± 0.11 |

| Substance | amyloid nucleation score |
| --- | --- |
| MFEVWFLESRHFINWGICSS | inactive |
| MFGGQELCACLDKEGRTESG | 5.09 ± 0.08 |
| MFLRRCSSRVDSKNGHSSKD | 0.107 ± 0.39 |
| MFMSQIPYQCGVKSNSVISK | -0.357 ± 0.49 |
| MFRVARFSKAYDCTHFVING | 0.546 ± 0.8 |
| MFSNQADFDTNLVSLYDKTW | -0.825 ± 0.4 |
| MFVLFWVVNSTDLCGTAPLV | 0.205 ± 0.61 |
| MFVQCICRGIHIIVPGSVRS | 3.88 ± 0.13 |
| MFYLCLRVVFRLKSWDFCDK | -0.271 ± 0.34 |
| MGFIRINWLNSVLRSPPTHR | 5.527 ± 0.044 |
| MGGGNCLVRFKRYEFPFDIP | -1.61 ± 0.54 |
| MGGLNLCLWSSGLMLVGTGR | 5.237 ± 0.043 |
| MGHRFLLRRLSFIADLLV | -1.12 ± 1 |
| MGLPSIF | 5.89 ± 0.092 |
| MGSFKC | -1.32 ± 0.63 |
| MGVDLPIASLCSNCGEAGLG | 0.199 ± 0.43 |
| MHQVFIKEYAEYYRVCERRM | 2.05 ± 0.064 |
| MHRLRYKATVFGLNNDDMPP | 0.841 ± 0.44 |
| MIGKRGVFS | inactive |
| MIIMQANDP | -0.302 ± 0.76 |
| MIKYYVSHNPRWHSRWCNSQ | 0.762 ± 0.43 |

From the supplement of paper PMC12042874
